Results as given in US20150005238A1 (PAION DEUTSCHLAND, published 2015).
Numbering of substitutions follows the chain as printed.

B1: Recombinant soluble thrombomodulin (Solulin) (receptor)
chain: EPQPGGSQCVEHDCFALYPGPATFLNASQICDGLRGHLMTVRSSVAADVISLLLNGDGGVGRRRLWIGLQLPPGCGDPKRLGPLRGFQWVTGDNNTSYSRWARLDLNGAPLCGPLCVAVSAAEATVPSEPIWEEQQCEVKADGFLCEFHFPATCRPLAVEPGAAAAAVSITYGTPFAARGADFQALPVGSSAAVAPLGLQLMCTAPPGAVQGHWAREAPGAWDCSVENGGCEHACNAIPGAPRCQCPAGAALQADGRSCTASATQSCNDLCEHFCVPNPDQPGSYSCMCETGYRLAADQHRCEDVDDCILEPSPCPQRCVNTQGGFECHCYPNYDLVDGECVEPVDPCFRANCEYQCQPLNQTSYLCVCAEGFAPIPHEPHRCQLFCNQTACPADCDPNTQASCECPEGYILDDGFICTDIDECENGGFCSGVCHNLPGTFECICGPDSALAGQIGTDCDSGKVDGGDSGAGEPPPSPTPGSTLTPP
notes: Obtained from PAION; also called sTM; recombinant human soluble thrombomodulin
B2: TME with deletion of Gln387 (receptor)
chain: CSVENGGCEHACNAIPGAPRCQCPAGAALQADGRSCTASATQSCNDLCEHFCVPNPDQPGSYSCMCETGYRLAADQHRCEDVDDCILEPSPCPQRCVNTQGGFECHCYPNYDLVDGECVEPVDPCFRANCEYQCQPLNQTSYLCVCAEGFAPIPHEPHRCMFCNQTACPADCDPNTQASCECPEGYILDDGFICTDIDECENGGFCSGVCHNLPGTFECICGPDSALARHIGTDC
B3: TME with deletion of Phe389 (receptor)
chain: B2 chain with M161Q, F162M
B4: TME with deletion of Met388 (receptor)
chain: B2 chain with M161Q
B5: TME with Ala inserted between 386 and 387 (receptor)
chain: CSVENGGCEHACNAIPGAPRCQCPAGAALQADGRSCTASATQSCNDLCEHFCVPNPDQPGSYSCMCETGYRLAADQHRCEDVDDCILEPSPCPQRCVNTQGGFECHCYPNYDLVDGECVEPVDPCFRANCEYQCQPLNQTSYLCVCAEGFAPIPHEPHRCAQMFCNQTACPADCDPNTQASCECPEGYILDDGFICTDIDECENGGFCSGVCHNLPGTFECICGPDSALARHIGTDC
B6: TME with Ala inserted between 387 and 388 (receptor)
chain: B5 chain with A161Q, Q162A
B7: TME with Ala inserted between 389 and 390 (receptor)
chain: B5 chain with A161Q, Q162M, M163F, F164A
B8: TME with Ala inserted between 388 and 389 (receptor)
chain: B5 chain with A161Q, Q162M, M163A

Target: human thrombin (human, UniProt P00734 328-622)
Experiment: equilibrium binding titration in solution; perturbation of DAPA fluorescence (20 nM thrombin, 20 nM DAPA, Solulin titrated), nonlinear regression
Experimental: The binding of thrombin to thrombomodulin was measured as an equilibrium binding assay. A solution containing thrombin (20 nM), thrombomodulin (1.54 μM), and DAPA (20 nM, dansylarginine N-3-(ethyl-1,5-pentanediyl)amide, a fluorescent, reversible thrombin inhibitor) in 0.02 M Tris-HCl, 0.15 M NaCl, 5.0 mM CaCl₂, 0.01% Tween 80, pH 7.4, was added in small successive aliquots to an otherwise identical solution that lacked thrombomodulin. The additions were performed in a cuvette fitted with a magnetic stirrer in the sample compartment of a Perkin-Elmer model LS50B spectrofluorimeter. Intensity values were continuously recorded with excitation and emission wavelengths of 280 and 545 nm, respectively. A 430-nm cut-off filter was used in the emission beam. The intensity of fluorescence, I, was assumed to be the sum of intensities from thrombin-DAPA (T·D) and thrombin-thrombomodulin-DAPA (T·TM·D). That is, I=i₁·[T·D]+i₂·[T·TM·D], where i₁ and i₂ are the coefficients of fluorescence for T·D and T·TM·D (since excitation was at 280 nm, the emission from free DAPA was negligible).

Kd | Binder
0.023 µM | B1

Target: thrombin (APC / TAFI activation assays of Examples V, VI and VIII; source not stated for the assay)
Experiment: cell-based or functional assay

cofactor activity (APC assay) | Binder
< 10 % of wild type TME | B2
< 10 % of wild type TME | B3
< 10 % of wild type TME | B4
< 10 % of wild type TME | B5
< 10 % of wild type TME | B6
< 10 % of wild type TME | B7
< 10 % of wild type TME | B8
